From US20250262316A1 (BIO THERA SOLUTIONS, published 2025)

Tests used:
[1] = biological target: T1, VISTA (NCBI Reference Sequence: NP_071436.1) on VISTA-CHO cells (UniProt Q9H7M9 33-311, limits assumed); test: flow cytometry on VISTA-CHO cells
T1 construct: whole, on cells

[2] = biological target: T2, Tim3 (NCBI Reference Sequence: NP_116171.3) on Tim3-CHO cells (UniProt Q8TDQ0 22-301, limits assumed); test: flow cytometry on Tim3-CHO cells
T2 construct: whole, on cells

hB7-H3-Fc = biological target: T3, hB7-H3-Fc; test: ELISA on coated hB7-H3-Fc (2 ug/mL), HRP anti-human kappa secondary, A450, antibody from 300 nM in 3-fold dilutions; axis 'Concentration' has no unit, nM from p-1066
T3 construct: also called antigen hB7-H3-Fc
T3 sequence (fusion chain, as listed by the source limits assumed): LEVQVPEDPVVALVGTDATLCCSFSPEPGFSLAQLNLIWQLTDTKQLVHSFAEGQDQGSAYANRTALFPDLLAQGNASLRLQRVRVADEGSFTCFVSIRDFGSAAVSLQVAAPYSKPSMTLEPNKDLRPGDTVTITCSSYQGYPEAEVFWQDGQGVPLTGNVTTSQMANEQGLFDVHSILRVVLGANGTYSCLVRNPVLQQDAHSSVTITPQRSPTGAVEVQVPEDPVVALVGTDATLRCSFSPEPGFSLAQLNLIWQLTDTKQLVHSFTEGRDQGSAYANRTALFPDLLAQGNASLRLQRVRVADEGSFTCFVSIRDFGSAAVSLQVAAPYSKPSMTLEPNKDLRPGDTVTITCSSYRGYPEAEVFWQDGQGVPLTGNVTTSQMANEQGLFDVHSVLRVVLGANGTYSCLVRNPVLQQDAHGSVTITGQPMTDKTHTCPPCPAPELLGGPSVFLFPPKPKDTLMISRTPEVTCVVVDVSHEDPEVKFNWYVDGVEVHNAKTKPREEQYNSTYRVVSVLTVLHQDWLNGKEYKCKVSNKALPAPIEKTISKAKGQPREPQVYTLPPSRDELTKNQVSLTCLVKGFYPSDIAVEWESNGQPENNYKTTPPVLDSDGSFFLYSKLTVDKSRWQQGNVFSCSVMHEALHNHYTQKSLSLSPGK

[3] = biological target: T4, Lag3 (NCBI Reference Sequence: NP_002277.4) on Lag3-CHO cells (UniProt P18627 23-525, limits assumed); test: flow cytometry on Lag3-CHO cells
T4 construct: whole, on cells
T4 sequence (looked up): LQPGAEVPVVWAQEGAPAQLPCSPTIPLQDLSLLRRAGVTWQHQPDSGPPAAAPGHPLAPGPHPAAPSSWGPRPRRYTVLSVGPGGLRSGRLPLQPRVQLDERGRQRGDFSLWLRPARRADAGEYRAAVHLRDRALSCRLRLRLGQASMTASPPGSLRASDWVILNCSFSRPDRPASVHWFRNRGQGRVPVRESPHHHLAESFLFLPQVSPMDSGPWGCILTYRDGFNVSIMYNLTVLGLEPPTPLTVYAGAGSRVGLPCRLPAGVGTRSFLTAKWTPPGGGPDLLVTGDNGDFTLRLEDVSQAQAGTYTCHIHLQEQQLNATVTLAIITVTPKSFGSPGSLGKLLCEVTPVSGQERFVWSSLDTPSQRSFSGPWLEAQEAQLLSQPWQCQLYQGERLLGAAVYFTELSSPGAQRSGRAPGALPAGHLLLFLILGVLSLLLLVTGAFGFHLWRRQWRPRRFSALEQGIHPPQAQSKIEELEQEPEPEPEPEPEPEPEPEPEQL

[4] = biological target: T2, Tim3 (NCBI Reference Sequence: …); test: flow cytometry on Tim3-CHO cells; blank P3 0.2%; the filing says V1-V5 did not bind
[5] = biological target: T5, B7-H3 on MDA-MB-468 cells (human, UniProt Q5ZPR3); test: flow cytometry on MDA-MB-468 cells; blank V2-R 0.9%
T5 construct: endogenous, on the cell surface
T5 sequence (cell surface antigen, looked up): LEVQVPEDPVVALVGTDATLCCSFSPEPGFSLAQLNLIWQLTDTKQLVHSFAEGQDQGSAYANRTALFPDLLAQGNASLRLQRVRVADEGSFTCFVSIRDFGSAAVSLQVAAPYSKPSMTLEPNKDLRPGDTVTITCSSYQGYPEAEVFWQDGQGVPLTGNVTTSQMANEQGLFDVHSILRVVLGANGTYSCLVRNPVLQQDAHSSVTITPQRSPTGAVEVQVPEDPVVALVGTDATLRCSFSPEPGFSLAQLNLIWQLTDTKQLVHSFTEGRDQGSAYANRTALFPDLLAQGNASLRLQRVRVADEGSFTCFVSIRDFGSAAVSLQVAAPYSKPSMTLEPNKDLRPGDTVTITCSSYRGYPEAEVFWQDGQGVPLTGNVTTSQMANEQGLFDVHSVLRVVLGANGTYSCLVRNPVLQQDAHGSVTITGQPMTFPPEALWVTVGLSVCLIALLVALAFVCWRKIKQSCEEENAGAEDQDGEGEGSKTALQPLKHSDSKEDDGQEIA

[6] = biological target: T1, VISTA (NCBI Reference Sequence: …); test: flow cytometry on VISTA-CHO cells; blank P3 0.1%; the filing says V1-V5 did not bind
[7] = biological target: T4, Lag3 (NCBI Reference Sequence: …); test: flow cytometry on Lag3-CHO cells; blank P3 0.5%; the filing says V1-V5 did not bind
antigen hB7-H3-His = biological target: T6, antigen hB7-H3-His (human, UniProt Q5ZPR3 29-461); test: SPR, BiaCore T200, antibody captured on Protein A chip, hB7-H3-His as analyte, 1:1 model
T6 construct: residues 1-28 are left out on that ground
T6 sequence: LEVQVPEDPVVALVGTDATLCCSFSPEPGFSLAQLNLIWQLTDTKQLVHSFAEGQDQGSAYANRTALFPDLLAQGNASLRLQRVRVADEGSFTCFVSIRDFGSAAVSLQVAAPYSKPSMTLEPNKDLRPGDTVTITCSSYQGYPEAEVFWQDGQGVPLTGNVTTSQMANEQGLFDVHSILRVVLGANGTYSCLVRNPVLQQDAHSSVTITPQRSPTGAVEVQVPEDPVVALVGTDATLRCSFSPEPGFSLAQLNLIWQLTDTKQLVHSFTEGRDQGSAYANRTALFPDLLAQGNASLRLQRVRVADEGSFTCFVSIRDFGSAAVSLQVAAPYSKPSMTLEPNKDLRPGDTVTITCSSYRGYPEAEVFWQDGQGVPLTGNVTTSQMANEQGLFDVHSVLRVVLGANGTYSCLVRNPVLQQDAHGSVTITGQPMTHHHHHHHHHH

[8] = biological target: T4, Lag3 (NCBI Reference Sequence: …); test: flow cytometry on Lag3-CHO cells, PE anti-human IgG Fc secondary
[9] = biological target: T2, Tim3 (NCBI Reference Sequence: …); test: flow cytometry on Tim3-CHO cells, PE anti-human IgG Fc secondary
[10] = biological target: T1, VISTA (NCBI Reference Sequence: …); test: flow cytometry on VISTA-CHO cells, PE anti-human IgG Fc secondary
[11] = biological target: T5, B7-H3 on MDA-MB-468 cells; test: flow cytometry on MDA-MB-468 cells, PE anti-human IgG Fc secondary, antibody from 100 nM in 3-fold dilutions; axis 'Concentration' has no unit, nM from p-1056

B1: Antibody V2 (antibody, human IgG1, kappa, V domains shown)
VH: EVQLVQSGAEVKKSGESLKISCKASGYTFTDYDINWVRQMPGKGLEWIGWIFPGDDTTKYNEKFKGQVTLSADKSTNTAYMQWSSLKASDTAMYYCARSPSFDYWGQGTLVTVSS
VL: QIVLTQSPGTLSLSPGERATLSCSASSTIGFMYWYQQKPGQAPRRWIYDTSKLASGVPDRFSVSGSGTDYTLTISRLEPEDFAVYYCHQRSSYPTFGQGTKVEIKR
notes: Humanized from chimeric antibody M1; also called humanized antibody V2
- binding result [1]: no binding (tested: 100 nM)
- binding result [2]: no binding (tested: 100 nM)
- EC50 (hB7-H3-Fc): 2.66 nM
- binding result [3]: no binding (tested: 100 nM)
- % of cells in gate P3 at 100 nM [4]: 1.8%
- % of cells in gate V1-R at 0.411 nM [5]: 1.2%
- % of cells in gate V1-R at 1.23 nM [5]: 1.3%
- % of cells in gate V1-R at 3.7 nM [5]: 60.1%
- % of cells in gate V1-R at 11.11 nM [5]: 97.8%
- % of cells in gate V1-R at 33.33 nM [5]: 99.7%
- % of cells in gate V1-R at 100 nM [5]: 99.4%
- % of cells in gate P3 at 100 nM [6]: 1.8%
- % of cells in gate P3 at 100 nM [7]: 5.6%

B2: Antibody V1 (antibody, human IgG1, kappa, V domains shown)
VH: EVQLVQSGAEVKKSGESLKISCKASGYTFTDYDINWVRQMPGKGLEWMGWIFPGDDTTKYNEKFKGQVTISADKSTNTAYLQWSSLKASDTAMYYCARSPSFDYWGQGTLVTVSS
VL: QIVLTQSPGTLSLSPGERATLSCSASSTIGFMYWYQQKPGQAPRRWIYDTSKLASGVPDRFSVSGSGTDYTLTISRLEPEDFAVYYCHQRSSYPTFGQGTKVEIKR
notes: Humanized from chimeric antibody M1; also called humanized antibody V1
- binding result [1]: no binding (tested: 100 nM)
- binding result [2]: no binding (tested: 100 nM)
- EC50 (hB7-H3-Fc): 3.95 nM
- binding result [3]: no binding (tested: 100 nM)
- % of cells in gate P3 at 100 nM [4]: 1.7%
- % of cells in gate V1-R at 0.411 nM [5]: 1.4%
- % of cells in gate V1-R at 1.23 nM [5]: 8.6%
- % of cells in gate V1-R at 3.7 nM [5]: 92.7%
- % of cells in gate V1-R at 11.11 nM [5]: 99.5%
- % of cells in gate V1-R at 33.33 nM [5]: 99.6%
- % of cells in gate V1-R at 100 nM [5]: 99.7%
- % of cells in gate P3 at 100 nM [6]: 0.9%
- % of cells in gate P3 at 100 nM [7]: 3.2%

B3: Antibody V5 (antibody, human IgG1, kappa, V domains shown)
VH: QVQLVQSGAEVKKPGASVKVSCKASGYTFTDYDINWVRQAPGQRLEWIGWIFPGDDTTKYNEKFKGRATLTADKSASTAYMELSSLRSEDTAVYYCARSPSFDYWGQGTLVTVSS
VL: QIVLTQSPSSLSASVGDRVTITCSASSTIGFMYWYQQKPGKAPKRWIYDTSKLASGVPSRFSVSGSGTDYTLTISSLQPEDFATYYCHQRSSYPTFGQGTKVEIKR
notes: Humanized from chimeric antibody M1; also called humanized antibody V5
- binding result [1]: no binding (tested: 100 nM)
- binding result [2]: no binding (tested: 100 nM)
- EC50 (hB7-H3-Fc): 8.24 nM
- binding result [3]: no binding (tested: 100 nM)
- % of cells in gate P3 at 100 nM [4]: 0.1%
- % of cells in gate V1-R at 0.411 nM [5]: 31.6%
- % of cells in gate V1-R at 1.23 nM [5]: 73.5%
- % of cells in gate V1-R at 3.7 nM [5]: 92.6%
- % of cells in gate V1-R at 11.11 nM [5]: 99.3%
- % of cells in gate V1-R at 33.33 nM [5]: 99.6%
- % of cells in gate V1-R at 100 nM [5]: 99.7%
- % of cells in gate P3 at 100 nM [6]: 0.2%
- % of cells in gate P3 at 100 nM [7]: 0.4%

B4: Antibody M1 (antibody, human IgG1, kappa, V domains shown)
VH: QVQLQQSGPELVKPGASVRISCKASGYTFTDYDINWVQQRPGQGLEWIGWIFPGDDTTKYNEKFKGRATLTADKSSNTAYMQLNGLTSENSAVYFCARSPSFDYWGQGTLVTVSS
VL: QIVLTQSPAIMSASPGERVTMTCSASSTIGFMYWYQQKPGTSPKRWIYDTSKLASGVPARFSVSGSGTSYSLTISSMEAEDAATYYCHQRSSYPTFGGGTKLEIKR
notes: Chimeric antibody: murine variable regions on human IgG1 and light chain constant regions; expressed in HEK293F cells; also called chimeric antibody M1
- Kd (antigen hB7-H3-His): 0.372 nM
- koff (antigen hB7-H3-His): 0.000279 s⁻¹
- kon (antigen hB7-H3-His): 750000 M⁻¹ s⁻¹
- binding result [8]: no binding (tested: 100 nM)
- EC50 (hB7-H3-Fc): 3.69 nM
- binding result [9]: no binding (tested: 100 nM)
- binding result [10]: no binding (tested: 100 nM)
- EC50 [11]: 1.54 nM
- % of cells in gate V1-R at 0.411 nM [5]: 26.5%
- % of cells in gate V1-R at 1.23 nM [5]: 93.1%
- % of cells in gate V1-R at 3.7 nM [5]: 98.7%
- % of cells in gate V1-R at 11.11 nM [5]: 99.5%
- % of cells in gate V1-R at 33.33 nM [5]: 99.7%
- % of cells in gate V1-R at 100 nM [5]: 99.7%

B5: Antibody M2 (antibody, human IgG1, kappa, V domains shown)
VH: QVQLQQSGPELVKPGASVRISCKASGYTFTDYDINWVQQRPGQGLEWIGWIFPGDDTTKYNEKFKGRATLTADKSSNTAYMQLNGLTSENSAVYFCARSPSFDYWGQGTLVTVSS
VL: DIKMTQSPSSMYASLGERVTITCKASQDINRFLSWFQQKPGKSPKTLIYRANRLRDGVPSRFSGNGSGQDYSLTISSLEYEDMGIYYCLQYDEFPPFTFGSGTKLEIKR
notes: Chimeric antibody: murine variable regions on human IgG1 and light chain constant regions; expressed in HEK293F cells; also called chimeric antibody M2
- Kd (antigen hB7-H3-His): 383 nM
- koff (antigen hB7-H3-His): 0.0491 s⁻¹
- kon (antigen hB7-H3-His): 128000 M⁻¹ s⁻¹
- EC50 [11]: 69.3 nM
